The results in this text go back to patent publication US11142548B2, “Agents that activate CD47 and their use in the treatment of inflammation” (SORBONNE UNIVERSITE, priority 2016, dated 2021).

The target of the test is T1, HTRA1 (Homo sapiens, UniProt Q92743).
T1 construct: purchased R & D
The experiment in a line: Co-incubation of recombinant TSP1 or TSP2 with recombinant HTRA1 (Coomassie staining, Western blot). It counts as biochemical. Particulars: co-incubation at 37° C. for 24 h, Coomassie gel. As for the experimental part: WB analysis was performed using a monoclonal anti-TSP1 antibody (Abeam), as previously described (Houssier et al., PLoS Med. 2008, 5:e39). RT-PCRs primers were ordered from Taqman, reference: Hs01016151_m1.
Western blot analysis of the proteins confirmed the disappearance of the whole sized TSP1 and the appearance of several smaller bands in the co-incubated condition (FIG. 3A). […] Next the functionality of rTSP1 and HTRA1-digested TSP1 was analyzed in laser-induced subretinal inflammation in vivo. […] Accordingly, associated choroidal neovascularization, measured as the surface covered by CD102^−CNV on choroidal flatmounts at d7, underwent the same differences (FIG. 3D).
(A western blot detects proteins with antibodies after separation by electrophoresis.)

T1 sequence (Q92743 23-480): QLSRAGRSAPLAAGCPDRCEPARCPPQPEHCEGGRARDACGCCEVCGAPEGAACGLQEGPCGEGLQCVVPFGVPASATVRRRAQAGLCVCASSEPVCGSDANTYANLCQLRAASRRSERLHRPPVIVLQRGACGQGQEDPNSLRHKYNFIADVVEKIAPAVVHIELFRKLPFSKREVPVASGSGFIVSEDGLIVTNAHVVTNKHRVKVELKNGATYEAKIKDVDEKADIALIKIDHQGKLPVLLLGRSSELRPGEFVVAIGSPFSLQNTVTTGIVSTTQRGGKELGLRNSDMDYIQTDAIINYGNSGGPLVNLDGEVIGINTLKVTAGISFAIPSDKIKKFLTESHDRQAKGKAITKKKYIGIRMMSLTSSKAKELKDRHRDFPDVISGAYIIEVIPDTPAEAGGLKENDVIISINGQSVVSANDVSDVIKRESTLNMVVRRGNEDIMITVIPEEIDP

Take “recombinant TSP1: recombinant human TSP1 (R&D Systems), natural ligand and agonist of CD47”: the “degradation by recombinant HTRA1” value is recorded as “degrades”.
